Measured values reported in ChEMBL document CHEMBL1250451, “Mechanistic insights into a Ca2+-dependent family of alpha-mannosidases in a human gut symbiont” (Nat Chem Biol, 2010).

Tests used:
Type in all cases: protein assay
[1] = substrate: O=[N+]([O-])c1ccc(O[C@H]2O[C@H](CO)[C@@H](O)[C@H](O)[C@@H]2O)cc1; assay: (§1) Ratio of Kcat to Km for Bacteroides thetaiotaomicron GH92 alpha-mannosidase GH92 alpha-mannosidase 3784 assessed as mannose release after 16 hrs by HPLC
[2] = substrate: OC[C@H]1O[C@H](O[C@H]2[C@@H](O)[C@H](O)[C@@H](CO)O[C@@H]2O)[C@@H](O)[C@@H](O)[C@@H]1O; assay: as §1
[3] = substrate: O=[N+]([O-])c1ccc(O[C@H]2O[C@H](CO)[C@@H](O)[C@H](O)[C@@H]2O)cc1; assay: (§2) Activity of Bacteroides thetaiotaomicron GH92 alpha-mannosidase GH92 alpha-mannosidase 3784 assessed as mannose release after 16 hrs by HPLC
[4] = substrate: OC[C@H]1O[C@H](O[C@H]2[C@@H](O)[C@H](O)[C@@H](CO)O[C@@H]2O)[C@@H](O)[C@@H](O)[C@@H]1O; assay: as §2
[5] = substrate: O=[N+]([O-])c1ccc(O[C@H]2O[C@H](CO)[C@@H](O)[C@H](O)[C@@H]2O)cc1; assay: (§3) Ratio of Kcat to Km for Bacteroides thetaiotaomicron GH92 alpha-mannosidase GH92 alpha-mannosidase 3962 assessed as mannose release after 16 hrs by HPLC
[6] = substrate: OC[C@H]1O[C@H](O[C@H]2[C@@H](O)[C@H](O)[C@@H](CO)O[C@@H]2O)[C@@H](O)[C@@H](O)[C@@H]1O; assay: as §3
[7] = substrate: O=[N+]([O-])c1ccc(O[C@H]2O[C@H](CO)[C@@H](O)[C@H](O)[C@@H]2O)cc1; assay: (§4) Activity of Bacteroides thetaiotaomicron GH92 alpha-mannosidase GH92 alpha-mannosidase 3962 assessed as mannose release after 16 hrs by HPLC
[8] = substrate: OC[C@H]1O[C@H](O[C@H]2[C@@H](O)[C@H](O)[C@@H](CO)O[C@@H]2O)[C@@H](O)[C@@H](O)[C@@H]1O; assay: as §4

B1: Alpha-1,2-mannosidase (BT_3784) (Bacteroides thetaiotaomicron), Q8A182 (protein)
chain: MKTHFSFKHLLFIGGAVLYSMQISAVKNPVDYVSTLVGTQSKFELSTGNTYPATALPWGMNFWTPQTGKMGDGWAYTYNADKIRGFKQTHQPSPWMNDYGQFSIMPITGGLVFDQDQRASWFSHKAEVAKPYYYKVYLADHDVTTELVPTERAAMFRFTYPETKNAYVVIDAFDKGSYVKVIPEENKIIGYSTKNSGGVPENFKNYFVIQFDKPFTFTSGVKENNILPNETEVQGNHTGAIIGFATQKGEIVHARVASSFISYEQAELNLKELGKDSFDQLVTKGKDIWNREMSKVDVEDDNIDNLRTFYSCLYRSMLFPRSFYEIDAKGQVVHYSPYNGKVLPGYMFTDTGFWDTFRCLFPFLNLMYPSMNQKMQEGLVNAYLESGFLPEWASPGHRDCMVGNNSASVVADAYIKGLRGYDIETLWEALKHDANAHLRGTASGRLAYDAYNKLGYVPNNIGIGQNVARTLEYAYNDWTIYTLGKKLGKPASEIDIFKQRALNYKNVYHPKRKLMVGKDDKGVFNPKFDAVDWSGEFCEGNSWHWSFCVFHDPQGLIDLMGGKKEFNNMMDSVFVIPGKQGMESRGMIHEMREMQVMNMGQYAHGNQPIQHMVYLYNYSGEPWKAQHWVREIMDKLYTAGPDGYCGDEDNGQTSAWYVFSALGFYPVCPGTDQYILGTPLFKSAKLHLENGKTVTIKASNNNTDNRYVKDMKVNGKAFTRNYLTHDQLLKGANIQYQMSPTPNKQRGTTEKDIPYSLSFE
- kcat/Km [1]: 11.5 M⁻¹ s⁻¹
- kcat/Km [2]: 183 M⁻¹ s⁻¹
- Km [3]: 6.9 mM
- kcat [3]: 0.08 s⁻¹
- Km [4]: 2.3 mM
- kcat [4]: 0.45 s⁻¹

B2: Glycoside hydrolase family 92 (BT_3962) (Bacteroides thetaiotaomicron), Q8A0Q9 (protein)
chain: MNKQKLLSITMTLLLGVSSIFAQKQPVDYVNPLMGTDSKISLSNGNTYPAIALPWGMNFWMPQTGKMGDGWAYTYASDKIRGFKQTHQPSPWINDYGQFSIMPMTKQLKIDQDSRASWFSHKAEKATPYYYSVYLSEYNMTTEIAPTERCAYFRFTFPEASDAYVVVDAFDRGSYVKVIPEENKIVGYTTRNSGGVPQNFRNYFVIEFDKPFTFNKVWADYHLVETHLELQSNHVGAAIGFSTKKGEQVHAKVASSFISPEQAELNLKEIGNKTFEQTKEAGRKAWNDVLGRIKVEDDDENRMRTFYSCLYRSVLFPRMFHEVNAKGETVHYSPYNGEIRPGYMFTDTGFWDTFRCLFPFVNLIYPSMGEKMQEGLLNTYLESGFFPEWASPGHRGCMVGNNSASVVADAFMKNVTKADAEKMYEGLLKGANSVHPRVSTTGRRGYEYYNKLGYVPYDVKINENAARTLEYAYDDWCIYRMGEKLGRPAEELELYKSRSQNYRNLFDPETKLMRGKNADGTFQTPFNPFKWGDAFTEGNSWHYTWSVFHDVQGLADLMGGRKMFVSMLDSVFNLPPIFDDSYYGGVIHEIREMEIANMGNYAHGNQPIQHMIYLYNYAGEPWKAQYWLREVMNRLYFATPDGYCGDEDNGQTSAWYVFTALGFYPVCPGSNEYVMGAPYFKKATITLENGKKLEISAPKNSDANRYIRSLNYNGKNYTKNYLNHFDLLKGGRLVFDMDNKPNKGRGINESDFPYSFSRDNK
- kcat/Km [5]: 56.7 M⁻¹ s⁻¹
- kcat/Km [6]: 31700 M⁻¹ s⁻¹
- Km [7]: 5 mM
- kcat [7]: 0.283 s⁻¹
- Km [8]: 0.43 mM
- kcat [8]: 13.7 s⁻¹
